Measurements published in publication PMC7055370, “Structure of the MICU1–MICU2 heterodimer provides insights into the gatekeeping threshold shift” (IUCrJ, 2020).

Target: the molecule itself
Assay: crystal structure; apo MICU1 ΔC - MICU2 ΔC (SeMet) mixed at a 1:1 molar ratio; crystals at 20°C in 20%(w/v) PEG 3350, 0.2 M ammonium citrate tribasic pH 7.5; 3.1 Å, SAD

B1: human MICU2 ΔC helix (residues 84–401), selenomethionine derivative (domain or fragment, UniProt Q8IYU8 84-401, looked up)
chain: SLRKQRFMQFSSLEHEGEYYMTPRDFLFSVMFEQMERKTSVKKLTKKDIEDTLSGIQTAGCGSTFFRDLGDKGLISYTEYLFLLTILTKPHSGFHVAFKMLDTDGNEMIEKREFFKLQKIISKQDDLMTVKTNETGYQEAIVKEPEINTTLQMRFFGKRGQRKLHYKEFRRFMENLQTEIQEMEFLQFSKGLSFMRKEDFAEWLLFFTNTENKDIYWKNVREKLSAGESISLDEFKSFCHFTTHLEDFAIAMQMFSLAHRPVRLAEFKRAVKVATGQELSNNILDTVFKIFDLDGDECLSHEEFLGVLKNRMHRGLWV
modifications: selenomethionine (SeMet) derivative
notes: human MICU2 (mitochondrial calcium uptake protein 2), residues 84-401, without the C-terminal helix; pCold II vector with 6x His tag at the N terminus; also called mitochondrial calcium uptake protein 2; source: E. coli B834(DE3), purified (Ni-IDA, SEC); not shown: His6, N-terminal, kept
- binding result: binds
